Reference: paper PMC9481167, “Biosynthetic proteins targeting the SARS-CoV-2 spike as anti-virals” (PLoS Pathogens, 2022)

B1: VHH-72 (VHH)
VHH: QVQLQESGGGLVQAGGSLRLSCAASGRTFSEYAMGWFRQAPGKEREFVATISWSGGSTYYTDSVKGRFTISRDNAKNTVYLQMNSLKPDDTAVYYCAAAGLGTVVSEWDYDYDYWGQGTQVTVSS
B2: VHH H11D4 (VHH)
VHH: QVQLVESGGGLMQAGGSLRLSCAVSGRTFSTAAMGWFRQAPGKEREFVAAIRWSGGSAYYADSVKGRFTISRDKAKNTVYLQMNSLKYEDTAVYYCARTENVRSLLSDYATWPYDYWGQGTQVTVSS
notes: also called VHH11D4

Target: receptor binding domain (RBD) of the SARS-CoV-2 spike (SARS-CoV-2, UniProt P0DTC2, biotin (biotinylated; site not stated))
Experiment: BLI
Details: both partners purified

Binder	binding result
B1	binds
B2	binds
